What all share (experiment): split reporter
Assay [1] has as its target HIV-1 Nef (SF2) 2PA (SH3-binding motif mutant), YFP BiFC fusions (HIV-1 (SF2 allele)) (UniProt P03407).
For assay [2], the target named is HIV-1 Nef (SF2) D123A, YFP BiFC fusions (HIV-1 (SF2 allele)).
Assay [3] concerns the target HIV-1 Nef (SF2) D123N, YFP BiFC fusions (HIV-1 (SF2 allele)).
Assay [4] addresses HIV-1 Nef (SF2) D123V, YFP BiFC fusions (HIV-1 (SF2 allele)).
Assay [5] concerns the target HIV-1 Nef (SF2) F121A, YFP BiFC fusions (HIV-1 (SF2 allele)).
Assay [6] addresses HIV-1 Nef (SF2) I109D/L112D/Y115D/F121D, YFP BiFC fusions (HIV-1 (SF2 allele)).
Assay [7] has as its target HIV-1 Nef (SF2) L112A, YFP BiFC fusions (HIV-1 (SF2 allele)).
The target of assay [8] is HIV-1 Nef (SF2) L112D, YFP BiFC fusions (HIV-1 (SF2 allele)).
For assay [9], the target named is HIV-1 Nef (SF2) L112D/Y115D, YFP BiFC fusions (HIV-1 (SF2 allele)).
Assay [10] concerns the target HIV-1 Nef (SF2) R105E, YFP BiFC fusions (HIV-1 (SF2 allele)).
In assay [11] the target is HIV-1 Nef (SF2) R105E/R106E, YFP BiFC fusions (HIV-1 (SF2 allele)).
Assay [12] has as its target HIV-1 Nef (SF2) Y115D, YFP BiFC fusions (HIV-1 (SF2 allele)).

Turning to “HIV-1 Nef (SF2) 2PA (SH3-binding motif mutant), YFP BiFC fusions (from UniProt P03407) (natural protein)”, the % decrease in BiFC relative to WT in assay [1] came out at 0%.

As to “HIV-1 Nef (SF2) D123A, YFP BiFC fusions (natural protein)”, the % decrease in BiFC relative to WT in assay [2] was found to be 69.6%.

For “HIV-1 Nef (SF2) D123N, YFP BiFC fusions (natural protein)”, the % decrease in BiFC relative to WT in assay [3] worked out at 97.1%.

With “HIV-1 Nef (SF2) D123V, YFP BiFC fusions (natural protein)”, in assay [4], the % decrease in BiFC relative to WT came to 52.9%.

The substance “HIV-1 Nef (SF2) F121A, YFP BiFC fusions (natural protein)” registered a % decrease in BiFC relative to WT in [5] of 33%.

With “HIV-1 Nef (SF2) I109D/L112D/Y115D/F121D, YFP BiFC fusions (natural protein)”, in assay [6], the % decrease in BiFC relative to WT turned out to be 99.9%.

As to “HIV-1 Nef (SF2) L112A, YFP BiFC fusions (natural protein)”, in assay [7], the % decrease in BiFC relative to WT is 52.8%.

The substance “HIV-1 Nef (SF2) L112D, YFP BiFC fusions (natural protein)” gave a % decrease in BiFC relative to WT in [8] of 47.5%.

“HIV-1 Nef (SF2) L112D/Y115D, YFP BiFC fusions (natural protein)” had a % decrease in BiFC relative to WT in assay [9] of 86.7%.

For the substance “HIV-1 Nef (SF2) R105E, YFP BiFC fusions (natural protein)”, the % decrease in BiFC relative to WT in assay [10] came out at 49.9%.

As to “HIV-1 Nef (SF2) R105E/R106E, YFP BiFC fusions (natural protein)”, the % decrease in BiFC relative to WT in assay [11] worked out at 71.1%.

Take “HIV-1 Nef (SF2) Y115D, YFP BiFC fusions (natural protein)”: the % decrease in BiFC relative to WT in assay [12] is 59.1%.

The values above are taken from PMC2783173.
